# In patent US6355245:
# What was measured:
# [1] = molecular target: human complement component C5 (purified) (human) (UniProt P01031); experiment: cell-based or functional assay
# [2] = molecular target: human complement component C5 (purified) (human) (UniProt P01031); experiment: plate-bound C3, C5 20 µg/ml with 5G1.1 Fab 20 µg/ml, bound C5 detected with N19/8; competitor C3
# [3] = molecular target: human complement component C5 (purified) (human) (UniProt P01031); experiment: plate-bound C4, C5 20 µg/ml with 5G1.1 Fab 20 µg/ml, bound C5 detected with N19/8; competitor C4
# [4] = molecular target: human complement component C5 (purified) (human) (UniProt P01031); experiment: solution equilibrium with C5, free antibody measured by ELISA (Friguet method), Scatchard analysis
# Sequence of UniProt P01031 (P01031 19-673 T389I limits assumed, chain 1 of 2): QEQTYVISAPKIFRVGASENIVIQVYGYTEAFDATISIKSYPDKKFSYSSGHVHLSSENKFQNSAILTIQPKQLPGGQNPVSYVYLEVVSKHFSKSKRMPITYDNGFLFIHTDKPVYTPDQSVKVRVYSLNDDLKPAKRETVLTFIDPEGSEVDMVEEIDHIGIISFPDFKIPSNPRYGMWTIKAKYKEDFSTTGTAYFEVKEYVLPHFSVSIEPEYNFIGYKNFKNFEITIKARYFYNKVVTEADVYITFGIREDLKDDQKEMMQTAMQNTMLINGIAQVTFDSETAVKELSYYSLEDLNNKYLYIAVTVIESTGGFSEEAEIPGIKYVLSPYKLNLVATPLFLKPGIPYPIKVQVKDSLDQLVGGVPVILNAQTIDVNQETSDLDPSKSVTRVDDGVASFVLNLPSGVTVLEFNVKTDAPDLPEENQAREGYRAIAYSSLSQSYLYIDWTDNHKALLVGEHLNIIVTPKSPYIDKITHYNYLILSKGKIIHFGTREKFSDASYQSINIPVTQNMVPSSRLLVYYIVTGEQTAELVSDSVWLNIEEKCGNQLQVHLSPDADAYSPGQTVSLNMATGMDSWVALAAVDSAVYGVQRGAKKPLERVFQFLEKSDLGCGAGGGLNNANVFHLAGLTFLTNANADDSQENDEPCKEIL
# Sequence of UniProt P01031 (P01031 678-1676 V802I limits assumed, chain 2 of 2): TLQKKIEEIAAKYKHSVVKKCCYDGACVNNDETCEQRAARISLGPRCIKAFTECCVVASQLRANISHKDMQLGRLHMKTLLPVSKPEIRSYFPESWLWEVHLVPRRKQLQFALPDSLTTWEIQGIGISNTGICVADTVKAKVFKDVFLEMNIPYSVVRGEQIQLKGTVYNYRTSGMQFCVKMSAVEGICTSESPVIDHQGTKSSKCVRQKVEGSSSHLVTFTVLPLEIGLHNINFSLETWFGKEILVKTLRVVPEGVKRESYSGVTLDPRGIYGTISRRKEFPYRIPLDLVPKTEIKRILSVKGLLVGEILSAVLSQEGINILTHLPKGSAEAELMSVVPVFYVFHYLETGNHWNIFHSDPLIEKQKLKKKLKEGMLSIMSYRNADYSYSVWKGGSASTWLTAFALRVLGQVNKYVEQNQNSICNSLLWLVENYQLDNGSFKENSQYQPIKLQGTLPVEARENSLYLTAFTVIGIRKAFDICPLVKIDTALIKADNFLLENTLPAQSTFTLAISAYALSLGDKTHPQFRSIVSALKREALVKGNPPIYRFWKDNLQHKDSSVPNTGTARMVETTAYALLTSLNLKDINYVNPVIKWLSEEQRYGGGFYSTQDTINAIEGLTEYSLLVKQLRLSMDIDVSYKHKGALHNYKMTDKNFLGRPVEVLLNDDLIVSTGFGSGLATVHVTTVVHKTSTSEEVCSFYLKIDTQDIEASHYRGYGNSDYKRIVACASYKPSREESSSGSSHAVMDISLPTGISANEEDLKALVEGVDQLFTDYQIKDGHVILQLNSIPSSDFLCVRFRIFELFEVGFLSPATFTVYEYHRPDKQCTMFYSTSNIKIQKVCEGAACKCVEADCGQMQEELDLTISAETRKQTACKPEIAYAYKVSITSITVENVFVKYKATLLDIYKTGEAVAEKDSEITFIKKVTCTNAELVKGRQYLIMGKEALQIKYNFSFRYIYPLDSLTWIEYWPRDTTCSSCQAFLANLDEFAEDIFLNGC
concentration that completely blocks C5a generation [1] [µM],percent inhibition of C5 binding to C3 [2] [%],percent inhibition of C5 binding to C4 [3] [%],Kd [4] [nM],Substance,blocking of complement hemolytic activity and of C5a generation [1] [%],concentration that completely blocks C5b-9-mediated hemolysis in 20% human serum [1] [µM],"concentration that blocks serum hemolytic activity, 20% v/v human serum [1] [µg/mL]","molar ratio at which serum hemolytic activity is blocked, 20% v/v human serum (molar ratio 5G1.1/C5) [1]","serum hemolytic activity (chicken erythrocyte hemolysis assay, human serum) (molar ratio antibody/C5) [1]"
,,,,chimeric N19/8 Fab (N19-8 VL/human kappa constant region and N19-8 VH/human IgG1 Fd),50,,,,
0.06 to 0.08,60 to 90,60 to 90,,5G1.1 Fab (derived from 5G1.1 by conventional papain digestion),,0.06 to 0.08,,,
0.15,,,,"m5G1.1 scFv (non-humanized murine 5G1.1 scFv, 5G1.1M1scFv)",,0.15,,,
0.06 to 0.08,,,0.03,"5G1.1 monoclonal antibody (native murine anti-human C5 mAb, produced by hybridoma 5G1.1, ATCC HB-11625)",,0.06 to 0.08,6.25,0.5,0.5
